Measured values from patent US20250320281A1.

Columns and labels:
Assay in all cases: cell-based or functional assay
[1] = target: HIV-1 envelope glycoprotein (Env) of isolate MGRM-C-026, clade C (HIV-1)
[2] = target: aMLV envelope protein (negative control pseudovirus)
[3] = target: HIV-1 envelope glycoprotein (Env) of isolate JRFL, clade B (HIV-1)
[4] = target: HIV-1 envelope glycoprotein (Env) of isolate MGRM-C-027, clade C (HIV-1)
[5] = target: HIV-1 envelope glycoprotein (Env) of isolate MGRM-C-028, clade C (HIV-1)
[6] = target: HIV-1 envelope glycoprotein (Env) of isolate JRCSF, clade B (HIV-1) (UniProt P20871)
[7] = target: HIV-1 envelope glycoprotein (Env) of isolate MGRM-AG-005, clade AG (HIV-1)
[8] = target: HIV-1 envelope glycoprotein (Env) of isolate 93IN905, clade C (HIV-1)
[9] = target: HIV-1 envelope glycoprotein (Env) of isolate CMU02, clade AE (HIV-1)
[10] = target: HIV-1 envelope glycoprotein (Env) of isolate 93UG077, clade A (HIV-1)
[11] = target: HIV-1 envelope glycoprotein (Env) of isolate 92UG005, clade D (HIV-1)
[12] = target: HIV-1 envelope glycoprotein (Env) of isolate 92BR020, clade B (HIV-1)
[13] = target: HIV-1 envelope glycoprotein (Env) of isolate APV6, clade B (HIV-1)
[14] = target: HIV-1 envelope glycoprotein (Env) of isolate 92RW020, clade A (HIV-1)
[15] = target: HIV-1 envelope glycoprotein (Env) of isolate MGRM-D-018, clade D (HIV-1)
[16] = target: HIV-1 envelope glycoprotein (Env) of isolate 92TH021, clade AE (HIV-1)
[17] = target: HIV-1 envelope glycoprotein (Env) of isolate APV13, clade B (HIV-1)
[18] = target: HIV-1 envelope glycoprotein (Env) of isolate 94UG103, clade A (HIV-1)
[19] = target: HIV-1 envelope glycoprotein (Env) of isolate 92UG024, clade D (HIV-1)
[20] = target: HIV-1 envelope glycoprotein (Env) of isolate MGRM-D-001, clade D (HIV-1)
[21] = target: HIV-1 envelope glycoprotein (Env) of isolate APV17, clade B (HIV-1)
[22] = target: HIV-1 envelope glycoprotein (Env) of isolate NL43, clade B (HIV-1)
[23] = target: HIV-1 envelope glycoprotein (Env) of isolate MGRM-A-010, clade A (HIV-1)

B1: PGT-135 (5343_B08; 5344_E16) human monoclonal anti-HIV antibody (antibody, V domains shown)
VH: QLQMQESGPGLVKPSETLSLSCTVSGDSIRGGEWGDKDYHWGWVRHSAGKGLEWIGSIHWRGTTHYKESLRRRVSMSIDTSRNWFSLRLASVTAADTAVYFCARHRHHDVFMLVPIAGWFDVWGPGVQVTVSS
VL: EIVMTQSPDTLSVSPGETVTLSCRASQNINKNLAWYQYKPGQSPRLVIFETYSKIAAFPARFVASGSGTEFTLTINNMQSEDVAVYYCQQYEEWPRTFGQGTKVDIK
IC50 (neutralization of pseudovirus) [1]: 0.0123 µg/mL | IC80 (neutralization of pseudovirus) [1]: 0.0562 µg/mL | IC90 (neutralization of pseudovirus) [1]: 0.139 µg/mL | IC95 (neutralization of pseudovirus) [1]: 0.331 µg/mL | IC50 (neutralization of pseudovirus) [2]: > 10 µg/mL | IC80 (neutralization of pseudovirus) [2]: > 10 µg/mL | IC90 (neutralization of pseudovirus) [2]: > 10 µg/mL | IC95 (neutralization of pseudovirus) [2]: > 10 µg/mL | IC50 (neutralization of pseudovirus) [3]: > 10 µg/mL | IC80 (neutralization of pseudovirus) [3]: > 10 µg/mL | IC90 (neutralization of pseudovirus) [3]: > 10 µg/mL | IC95 (neutralization of pseudovirus) [3]: > 10 µg/mL | IC50 (neutralization of pseudovirus) [4]: > 10 µg/mL | IC80 (neutralization of pseudovirus) [4]: > 10 µg/mL | IC90 (neutralization of pseudovirus) [4]: > 10 µg/mL | IC95 (neutralization of pseudovirus) [4]: > 10 µg/mL | IC50 (neutralization of pseudovirus) [5]: 2.16 µg/mL | IC80 (neutralization of pseudovirus) [5]: > 10 µg/mL | IC90 (neutralization of pseudovirus) [5]: > 10 µg/mL | IC95 (neutralization of pseudovirus) [5]: > 10 µg/mL | IC50 (neutralization of pseudovirus) [6]: 0.113 µg/mL | IC80 (neutralization of pseudovirus) [6]: 0.503 µg/mL | IC90 (neutralization of pseudovirus) [6]: 1.47 µg/mL | IC95 (neutralization of pseudovirus) [6]: 8.3 µg/mL | IC50 (neutralization of pseudovirus) [7]: > 10 µg/mL | IC80 (neutralization of pseudovirus) [7]: > 10 µg/mL | IC90 (neutralization of pseudovirus) [7]: > 10 µg/mL | IC95 (neutralization of pseudovirus) [7]: > 10 µg/mL | IC50 (neutralization of pseudovirus) [8]: 0.0183 µg/mL | IC80 (neutralization of pseudovirus) [8]: 0.0648 µg/mL | IC90 (neutralization of pseudovirus) [8]: 0.136 µg/mL | IC95 (neutralization of pseudovirus) [8]: 0.268 µg/mL | IC50 (neutralization of pseudovirus) [9]: > 10 µg/mL | IC80 (neutralization of pseudovirus) [9]: > 10 µg/mL | IC90 (neutralization of pseudovirus) [9]: > 10 µg/mL | IC95 (neutralization of pseudovirus) [9]: > 10 µg/mL | IC50 (neutralization of pseudovirus) [10]: > 10 µg/mL | IC80 (neutralization of pseudovirus) [10]: > 10 µg/mL | IC90 (neutralization of pseudovirus) [10]: > 10 µg/mL | IC95 (neutralization of pseudovirus) [10]: > 10 µg/mL | IC50 (neutralization of pseudovirus) [11]: > 10 µg/mL | IC80 (neutralization of pseudovirus) [11]: > 10 µg/mL | IC90 (neutralization of pseudovirus) [11]: > 10 µg/mL | IC95 (neutralization of pseudovirus) [11]: > 10 µg/mL | IC50 (neutralization of pseudovirus) [12]: 0.104 µg/mL | IC80 (neutralization of pseudovirus) [12]: 0.253 µg/mL | IC90 (neutralization of pseudovirus) [12]: 0.43 µg/mL | IC95 (neutralization of pseudovirus) [12]: 0.72 µg/mL | IC50 (neutralization of pseudovirus) [13]: > 10 µg/mL | IC80 (neutralization of pseudovirus) [13]: > 10 µg/mL | IC90 (neutralization of pseudovirus) [13]: > 10 µg/mL | IC95 (neutralization of pseudovirus) [13]: > 10 µg/mL | IC50 (neutralization of pseudovirus) [14]: 0.157 µg/mL | IC80 (neutralization of pseudovirus) [14]: 3.46 µg/mL | IC90 (neutralization of pseudovirus) [14]: > 10 µg/mL | IC95 (neutralization of pseudovirus) [14]: > 10 µg/mL | IC50 (neutralization of pseudovirus) [15]: 0.0433 µg/mL | IC80 (neutralization of pseudovirus) [15]: 0.2 µg/mL | IC90 (neutralization of pseudovirus) [15]: > 10 µg/mL | IC95 (neutralization of pseudovirus) [15]: > 10 µg/mL | IC50 (neutralization of pseudovirus) [16]: > 10 µg/mL | IC80 (neutralization of pseudovirus) [16]: > 10 µg/mL | IC90 (neutralization of pseudovirus) [16]: > 10 µg/mL | IC95 (neutralization of pseudovirus) [16]: > 10 µg/mL | IC50 (neutralization of pseudovirus) [17]: 0.545 µg/mL | IC80 (neutralization of pseudovirus) [17]: > 10 µg/mL | IC90 (neutralization of pseudovirus) [17]: > 10 µg/mL | IC95 (neutralization of pseudovirus) [17]: > 10 µg/mL | IC50 (neutralization of pseudovirus) [18]: > 10 µg/mL | IC80 (neutralization of pseudovirus) [18]: > 10 µg/mL | IC90 (neutralization of pseudovirus) [18]: > 10 µg/mL | IC95 (neutralization of pseudovirus) [18]: > 10 µg/mL | IC50 (neutralization of pseudovirus) [19]: 0.0139 µg/mL | IC80 (neutralization of pseudovirus) [19]: 0.054 µg/mL | IC90 (neutralization of pseudovirus) [19]: 0.122 µg/mL | IC95 (neutralization of pseudovirus) [19]: 0.267 µg/mL | IC50 (neutralization of pseudovirus) [20]: > 10 µg/mL | IC80 (neutralization of pseudovirus) [20]: > 10 µg/mL | IC90 (neutralization of pseudovirus) [20]: > 10 µg/mL | IC95 (neutralization of pseudovirus) [20]: > 10 µg/mL | IC50 (neutralization of pseudovirus) [21]: > 10 µg/mL | IC80 (neutralization of pseudovirus) [21]: > 10 µg/mL | IC90 (neutralization of pseudovirus) [21]: > 10 µg/mL | IC95 (neutralization of pseudovirus) [21]: > 10 µg/mL | IC50 (neutralization of pseudovirus) [22]: 6.79 µg/mL | IC80 (neutralization of pseudovirus) [22]: > 10 µg/mL | IC90 (neutralization of pseudovirus) [22]: > 10 µg/mL | IC95 (neutralization of pseudovirus) [22]: > 10 µg/mL | IC50 (neutralization of pseudovirus) [23]: > 10 µg/mL | IC80 (neutralization of pseudovirus) [23]: > 10 µg/mL | IC90 (neutralization of pseudovirus) [23]: > 10 µg/mL | IC95 (neutralization of pseudovirus) [23]: > 10 µg/mL
